Results on two molecules are retold here after US20190010205A1 (JCR PHARMACEUTICALS, published 2019).

Common to all, as to experiment: cell-based or functional assay
One assay concerns the target HSA-[linker]-20K hGH (human).
The next assay addresses HSA-20K hGH (human).
Assay [1] has as its target T1, human GH receptor (hGHR) expressed on mouse BaF3 cells (BaF3/hGHR cells) (human, UniProt P10912 19-638).
T1 sequence (looked up): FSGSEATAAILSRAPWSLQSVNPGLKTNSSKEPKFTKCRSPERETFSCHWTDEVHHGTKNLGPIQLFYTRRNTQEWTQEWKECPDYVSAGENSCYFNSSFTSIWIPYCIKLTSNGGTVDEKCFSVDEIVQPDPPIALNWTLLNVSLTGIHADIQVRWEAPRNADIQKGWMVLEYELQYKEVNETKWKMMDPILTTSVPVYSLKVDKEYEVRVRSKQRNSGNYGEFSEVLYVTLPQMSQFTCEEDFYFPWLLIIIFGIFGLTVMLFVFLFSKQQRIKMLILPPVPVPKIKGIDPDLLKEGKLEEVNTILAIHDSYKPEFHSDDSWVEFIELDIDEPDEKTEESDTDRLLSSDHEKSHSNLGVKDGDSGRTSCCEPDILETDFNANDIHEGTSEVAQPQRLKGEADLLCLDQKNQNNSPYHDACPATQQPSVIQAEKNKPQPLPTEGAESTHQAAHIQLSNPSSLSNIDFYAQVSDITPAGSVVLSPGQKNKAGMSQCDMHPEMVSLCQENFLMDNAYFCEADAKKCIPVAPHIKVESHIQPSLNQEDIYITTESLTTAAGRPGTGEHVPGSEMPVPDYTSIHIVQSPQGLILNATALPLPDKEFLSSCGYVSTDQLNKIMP

Assay [2] addresses T2, human prolactin receptor (hPRLR) expressed on mouse BaF3 cells (BaF3/hPRLR cells) (human, UniProt P16471 25-622).
T2 sequence (looked up): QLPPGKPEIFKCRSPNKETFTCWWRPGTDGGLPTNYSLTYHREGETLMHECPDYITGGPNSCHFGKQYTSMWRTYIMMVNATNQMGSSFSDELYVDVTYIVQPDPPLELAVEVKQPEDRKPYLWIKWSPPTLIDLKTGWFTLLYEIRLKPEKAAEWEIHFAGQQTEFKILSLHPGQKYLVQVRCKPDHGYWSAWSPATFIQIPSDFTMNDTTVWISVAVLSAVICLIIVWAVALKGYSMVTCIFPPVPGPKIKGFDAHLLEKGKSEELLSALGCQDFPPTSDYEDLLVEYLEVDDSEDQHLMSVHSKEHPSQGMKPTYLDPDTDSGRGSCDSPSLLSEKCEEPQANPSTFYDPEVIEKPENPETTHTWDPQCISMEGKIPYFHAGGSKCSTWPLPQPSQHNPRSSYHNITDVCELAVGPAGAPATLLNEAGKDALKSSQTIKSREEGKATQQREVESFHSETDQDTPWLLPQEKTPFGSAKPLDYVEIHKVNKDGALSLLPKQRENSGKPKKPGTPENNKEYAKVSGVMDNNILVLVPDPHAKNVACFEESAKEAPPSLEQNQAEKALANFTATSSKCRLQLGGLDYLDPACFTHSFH

B1: recombinant human growth hormone binding protein (rhGHBP, BioVision Inc.) (receptor, UniProt P10912 19-264, looked up)
chain: FSGSEATAAILSRAPWSLQSVNPGLKTNSSKEPKFTKCRSPERETFSCHWTDEVHHGTKNLGPIQLFYTRRNTQEWTQEWKECPDYVSAGENSCYFNSSFTSIWIPYCIKLTSNGGTVDEKCFSVDEIVQPDPPIALNWTLLNVSLTGIHADIQVRWEAPRNADIQKGWMVLEYELQYKEVNETKWKMMDPILTTSVPVYSLKVDKEYEVRVRSKQRNSGNYGEFSEVLYVTLPQMSQFTCEEDFY
Regarding B1, the “IC50 of hGHBP against cell growth activity on BaF3/hGHR cells (by extrapolation)” value with HSA-[linker]-20K hGH and with HSA-20K hGH was 250 to 350 nM throughout.

B2: 20K human growth hormone (ATGen Inc.) (ligand)
chain: FPTIPLSRLFDNAMLRAHRLHQLAFDTYQEFNPQTSLCFSESIPTPSNREETQQKSNLELLRISLLLIQSWLEPVQFLRSVFANSLVYGASDSNVYDLLKDLEEGIQTLMGRLEDGSPRTGQIFKQTYSKFDTNSHNDDALLKNYGLLYCFRKDMDKVETFLRIVQCRSVEGSCGF
Consider B2, for which, in assay [1], the “EC50 (row printed as ED50), cell growth activity using BaF3/hGHR cells” value was 0.00084 nM. The “EC50 (row printed as ED50), prolactin-like activity using BaF3/hPRLR cells” value in assay [2] amounted to 0.27 nM.
